Numbering of substitutions follows the chain as printed. Names and notes keep the numbering of the source.
T1: recombinant human DR3/TNFRSF25 Fc chimera (human, UniProt Q93038 25-199)
T1 construct: extracellular domain; bought (R&D Systems); also called DR3-Fc; hDR3Fc chimera; not shown: human IgG1 Fc
T1 sequence (looked up): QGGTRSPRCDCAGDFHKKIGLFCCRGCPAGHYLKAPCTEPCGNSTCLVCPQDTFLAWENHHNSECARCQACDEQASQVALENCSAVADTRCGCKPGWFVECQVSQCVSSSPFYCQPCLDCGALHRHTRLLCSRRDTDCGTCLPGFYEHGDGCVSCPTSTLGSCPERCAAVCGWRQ

T2: DR3-8i (human)
T2 construct: also called purified monomeric DR3-8i antigen protein
T2 chain: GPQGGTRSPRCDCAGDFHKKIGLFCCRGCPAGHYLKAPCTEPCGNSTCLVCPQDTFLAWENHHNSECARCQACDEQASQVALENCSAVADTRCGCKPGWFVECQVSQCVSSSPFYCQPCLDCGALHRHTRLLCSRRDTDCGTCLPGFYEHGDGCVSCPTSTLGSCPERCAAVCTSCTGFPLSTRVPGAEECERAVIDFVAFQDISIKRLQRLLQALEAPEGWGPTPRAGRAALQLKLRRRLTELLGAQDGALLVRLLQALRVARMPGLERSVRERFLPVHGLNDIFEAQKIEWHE

T3: human DR3 (TNFRSF25) expressed on cells (human, UniProt Q93038 25-417)
T3 sequence: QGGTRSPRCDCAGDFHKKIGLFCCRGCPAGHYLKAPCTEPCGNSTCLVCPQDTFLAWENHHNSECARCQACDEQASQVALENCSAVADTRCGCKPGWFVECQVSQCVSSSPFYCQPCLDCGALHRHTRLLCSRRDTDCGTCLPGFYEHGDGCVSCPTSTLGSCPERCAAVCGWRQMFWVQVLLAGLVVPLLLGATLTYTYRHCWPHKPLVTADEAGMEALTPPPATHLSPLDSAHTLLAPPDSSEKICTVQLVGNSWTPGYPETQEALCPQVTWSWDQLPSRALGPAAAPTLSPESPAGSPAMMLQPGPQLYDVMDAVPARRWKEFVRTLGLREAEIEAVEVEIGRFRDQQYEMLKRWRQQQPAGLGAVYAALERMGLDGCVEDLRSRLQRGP

B1: B9-hIgG1 (antibody, V domains shown)
VH: EVQLVESGGGLVKPGGSLKLSCSASGFTFSSYAMSWVRQTPEKRLEWVATISDGDSYSYFPDSVKDRFIISRDNAKNNLFLQMSHLRSEDTAMYYCTRDRIYGSVQYYAMDYWGQGTSVTVSS
VL: DIVLTQSPASLAVSLGQRATISCRASESVEFSGTSLMQWYQQRPGLPPKLLIYAASNVESGVPARFSGSGSGTDFSLNIHPVEEDDIAMYFCQQSRKLPYTFGGGTKLEIN
notes: chimeric: mouse B9 variable regions, human IgG1; also called B9-H1; Non-humanised B9
B2: VHg6/VLg13 (antibody, human IgG1, V domains shown)
VH: QVQLQQSGGGLVQPGGSLRLSCAASGFTFSSYAMSWVRQAPGKGLEWVATISDGDSYSYFPDSVKDRFTISRDNARNSLYLQMNSLRAEDTAVYYCARDRIYGSVQYYAMDYWGRGTLVTVSS
VL: DIQMTQSPSSLSASVGDRVTITCRASESVEFSGTSLMQWYQQKPGKAPKLLIYAASNVESGVPSRFSGSGSGTDFTFTISSLQPEDIATYYCQQSRKLPYTFGQGTKLEIK
notes: human IgG1
B3: VHg6/VLg11 (antibody, human IgG1, V domains shown)
VH: B2 VH
VL: DIVMTQSPDSLAVSLGERATINCRASESVEFSGTSLMQWYQQKPGQPPKLLIYAASNVESGVPDRFSGSGSGTDFTLTISSLQAEDVAVYYCQQSRKLPYTFGQGTKLEIK
notes: human IgG1
B4: VHg1/VLg11 (antibody, human IgG1, V domains shown)
VH: B2 VH with Q5V, A49S, A75S, R76K, S78T, A92S, R115Q
VL: B3 VL
notes: human IgG1; also called H1L11; VHg1/VL11
B5: VHg2/VLg2 (antibody, human IgG1, V domains shown)
VH: B2 VH with V2M, Q5V, Q13K, V37I, A49S, R76K, A97T
VL: B2 VL with M4L, P44A, K46L, F77L, I87F, A88G, K107R
notes: human IgG1
B6: VHg2/VLs10 (antibody, human IgG1, V domains shown)
VH: B2 VH with V2M, Q5V, Q13K, V37I, A49S, R76K, A97T
VL: ETTLTQSPGTLSLSPGERATLSCRASQSVSSSSLAWYQQKPGQAPRLLIYGASSRATGIPDRFSGSGSGTDFTLTISRLEPEDFAVYYCHQYGGSWTFGKGTKVEIK
notes: human IgG1; also called VHg2_VLg10
B7: VHg10/VLg6 (antibody, human IgG1, V domains shown)
VH: B2 VH with Q1E, Q5V, Q6E, A49S, A75S, R76K, S78T, R115Q
VL: DVVMTQSPPSLPVTPGEPASISCRASESVEFSGTSLMQWYLQKPGQSPQVLIYAASNVESGVPDRFSGSGSGTDFTLKISRVEAEDVGVYYCQQSRKLPYTFGQGTRLEIK
notes: human IgG1
B8: VHg1/VLg2 (antibody, human IgG1, V domains shown)
VH: B2 VH with Q5V, A49S, A75S, R76K, S78T, A92S, R115Q
VL: B2 VL with M4L, P44A, K46L, F77L, I87F, A88G, K107R
notes: human IgG1
B9: VHg10/VLg12 (antibody, human IgG1, V domains shown)
VH: B2 VH with Q1E, Q5V, Q6E, A49S, A75S, R76K, S78T, R115Q
VL: EIVLTQSPATLSLSPGERATLSCRASESVEFSGTSLMQWYQQKPGQAPRLLIYAASNVESGIPARFSGSGSGTDFTLTISSLEPEDFAVYYCQQSRKLPYTFGQGTKLEIK
notes: human IgG1
B10: VHg3/VLg13 (antibody, human IgG1, V domains shown)
VH: EVQLVQSGGGLVKPGGSLRLSCAASGFKFSSYAMSWVRQAPGKGLEWLSTISDGDSYSYFPDSVKDRFIISRDNAKNSLYLQMNSLRVEDTGVYYCARDRIYGSVQYYAMDYWGQGTLVTVSS
VL: B2 VL
notes: human IgG1
B11: VHg6/VLg2 (antibody, human IgG1, V domains shown)
VH: B2 VH
VL: B2 VL with M4L, P44A, K46L, F77L, I87F, A88G, K107R
notes: human IgG1
B12: VHg1/VLg4 (antibody, human IgG1, V domains shown)
VH: B2 VH with Q5V, A49S, A75S, R76K, S78T, A92S, R115Q
VL: B3 VL with I2V, N22S, G45R, P48L, K107R
notes: human IgG1
B13: VHg2/VLg4 (antibody, human IgG1, V domains shown)
VH: B2 VH with V2M, Q5V, Q13K, V37I, A49S, R76K, A97T
VL: B3 VL with I2V, N22S, G45R, P48L, K107R
notes: human IgG1
B14: VHg6/VLg1 (antibody, human IgG1, V domains shown)
VH: B2 VH
VL: B3 VL with I2V, A88V, Q104G, L108V
notes: human IgG1
B15: VHg5/VLg12 (antibody, human IgG1, V domains shown)
VH: B2 VH with P14A, S30T, T69I, R76K, Y80F
VL: B9 VL
notes: human IgG1
B16: VHg5/VLg2 (antibody, human IgG1, V domains shown)
VH: B2 VH with P14A, S30T, T69I, R76K, Y80F
VL: B2 VL with M4L, P44A, K46L, F77L, I87F, A88G, K107R
notes: human IgG1
B17: VHg3/VLg4 (antibody, human IgG1, V domains shown)
VH: B10 VH
VL: B3 VL with I2V, N22S, G45R, P48L, K107R
notes: human IgG1
B18: VHg5/VLg13 (antibody, human IgG1, V domains shown)
VH: B2 VH with P14A, S30T, T69I, R76K, Y80F
VL: B2 VL
notes: human IgG1
B19: VHg5/VLg11 (antibody, human IgG1, V domains shown)
VH: B2 VH with P14A, S30T, T69I, R76K, Y80F
VL: B3 VL
notes: human IgG1
B20: VHg2/VLg13 (antibody, human IgG1, V domains shown)
VH: B2 VH with V2M, Q5V, Q13K, V37I, A49S, R76K, A97T
VL: B2 VL
notes: human IgG1
B21: B9 mIgG2A (antibody, V domains shown)
VH: B1 VH
VL: B1 VL
notes: parental mouse IgG2a, kappa; also called B9-M2A; murine anti-hDR3 mAb clone B9
B22: F10 mIgG1 (antibody, V domains shown)
VH: EVQLVESGGDLVKPGGSLKLSCAASGFSFSAYAMSWVRQTPEKILEWVATISDGDPYTYYPDNVKGRFTISRDNARNNLYLQMSHLRSEDTAIYYCTRERNDYDQYYTMDYWGQGTSVTVSS
VL: DIVLTQSPASLVVSLGQRATISCRASKSVSTSGYNYLHWYQQTPGQPPKLLIYLASNLESGVPARFSGSGSGTDFTLNIHPVEEEDVATYYCQHSRELPWTFGRGTKLEIKR
notes: parental mouse IgG1; also called F10-M1; murine anti-hDR3 mAb clone F10

The binders below were run against T1, recombinant human DR3/TNFRSF25 Fc … (assay: HTRF epitope competition on DR3-Fc; competitor DyLight 650 labelled B9 IgG; mean ± SD of three experiments).

IC50 [nM] | Binder
0.252 | B1
0.348 | B2
0.287 | B3
0.447 | B4

Target: T2, DR3-8i
Assay: BLI, IgG captured on protein A, DR3-8i in solution; Experiment 1

Kd [nM] | Binder
0.327 | B1
0.001 | B5
0.41 | B6
0.418 | B7
0.316 | B8
0.225 | B2
0.175 | B9
0.464 | B10
0.19 | B3
0.001 | B4
0.227 | B11

Target: T2, DR3-8i
Assay: BLI, IgG captured on protein A, DR3-8i in solution; Experiment 2

Kd [nM] | Binder
0.19 | B1
0.21 | B5
0.42 | B6
0.234 | B7
0.00202 | B8
0.0956 | B2
0.188 | B9
0.389 | B10
0.0999 | B3
0.159 | B11

Each binder was assayed against T3, human DR3 (TNFRSF25) expressed on cells (assay: cell-based or functional assay).

EC50 (pM), DR3 Jurkat reporter [pM] | Signal (FLU) | Binder
457 | – | B1
– | 2.09e+06 | B12
103 | 2.5e+06 | B5
644 | 2.34e+06 | B6
– | 2.75e+06 | B7
336 | 2.44e+06 | B8
141 | 2.75e+06 | B2
– | 2.21e+06 | B13
132 | 3.56e+06 | B9
– | 2.16e+06 | B14
– | 2.62e+06 | B15
1770 | 2.66e+06 | B10
– | 2.76e+06 | B16
130 | 2.45e+06 | B3
331 | 2.47e+06 | B4
– | 2.32e+06 | B17
– | 2.7e+06 | B18
118 | 2.44e+06 | B11
– | 2.4e+06 | B19
– | 2.94e+06 | B20

Target: T2, DR3-8i
Assay: BLI, IgG captured on protein A, DR3-8i in solution; Average

Kd [nM] | Binder
0.259 | B1
0.106 | B5
0.415 | B6
0.326 | B7
0.159 | B8
0.16 | B2
0.181 | B9
0.427 | B10
0.145 | B3
0.193 | B11

These binders were tested against T1, recombinant human DR3/TNFRSF25 Fc … (assay: SPR (Biacore), His-tagged hDR3-Fc captured by anti-His mAb, bivalent fit; apparent KD).

Kd [nM] | Binder
0.561 | B21
1.07 | B22

Target: T2, DR3-8i
Assay: BLI, IgG captured on protein A, DR3-8i in solution; single experiment, column not clear

Kd [nM] | Binder
0.196 | B12
0.0248 | B13
0.076 | B14
0.126 | B15
0.132 | B16
0.385 | B17
0.124 | B18
0.0881 | B19
0.157 | B20

From patent WO2025083273A1 (dated 2025)
